Results: PMC8724787 (2021)

B1: K^L66A C10 mAb mutant (IgG1) (antibody, V domains shown)
VH: EVQLVESGAEVKKPGASVKVSCKASGYTFTSYAMHWVRQAPGQRLEWMGWINAGNGNTKYSQKFQDRVTITRDTSASTAYMELSSLRSEDTAIYYCARDKVDDYGDYWFPTLWYFDYWGQGTLVTVSS
VL: QSALTQPASVSGSPGQSITISCTGTSSDVGGFNYVSWFQQHPGKAPKLMLYDVTSRPSGVSSRFSGSASGNTASLTISGLQAEDEADYYCSSHTSRGTWVFGGGTKLTVL
B2: C10 intact bivalent IgG1 (human monoclonal antibody EDE1 C10) (antibody, V domains shown)
VH: EVQLVESGAEVKKPGASVKVSCKASGYTFTSYAMHWVRQAPGQRLEWMGWINAGNGNTKYSQKFQDRVTITRDTSASTAYMELSSLRSEDTAIYYCARDKVDDYGDYWFPTLWYFDYWGQGTLVTVSS
VL: QSALTQPASVSGSPGQSITISCTGTSSDVGGFNYVSWFQQHPGKAPKLMLYDVTSRPSGVSSRFSGSKSGNTASLTISGLQAEDEADYYCSSHTSRGTWVFGGGTKLTVL
B3: C10 monovalent antigen binding fragment (Fab) (Fab, V domains shown)
VH: EVQLVESGAEVKKPGASVKVSCKASGYTFTSYAMHWVRQAPGQRLEWMGWINAGNGNTKYSQKFQDRVTITRDTSASTAYMELSSLRSEDTAIYYCARDKVDDYGDYWFPTLWYFDYWGQGTLVTVSS
VL: QSALTQPASVSGSPGQSITISCTGTSSDVGGFNYVSWFQQHPGKAPKLMLYDVTSRPSGVSSRFSGSKSGNTASLTISGLQAEDEADYYCSSHTSRGTWVFGGGTKLTVL

How the values were obtained:
[1] = target: ZIKV-H/PF/2013 sE protein (aa 1-404) (Zika virus (strain H/PF/2013)); assay: BLI
[2] = target: ZIKV strain PF13 envelope (E) protein on virions (Zika virus (strain PF13), UniProt A0A024B7W1); assay: ELISA; apparent
[3] = target: DENV4 strain 1-0093 envelope (E) protein on virions (Dengue virus 4 (strain 1-0093)); assay: ELISA; apparent
[4] = target: DENV3 strain H87 envelope (E) protein on virions (Dengue virus 3 (strain H87)); assay: ELISA; apparent
[5] = target: DENV2 strain 16681 envelope (E) protein on virions (Dengue virus 2 (strain 16681)); assay: ELISA; apparent

Binder | Kd [1] [nM] | Kd [2] [nM] | Kd [3] [nM] | Kd [4] [nM] | Kd [5] [nM]
B1 | 40.3 |  |  |  | 
B2 | 16.2 | 0.41 | 1.42 | 2.03 | 
B3 |  | 1.16 | 29.2 | 165 | 38.8
